Test results reported in article PMC3699403.

Tests used:
[1] = molecular target: STM3605t (STM3605 residues 5-107, SeMet-labeled and reductively methylated) (Salmonella enterica serovar Typhimurium LT2); experiment: crystal structure
[2] = molecular target: STM3605f, full-length Se-labeled non-methylated variant (Salmonella enterica serovar Typhimurium LT2); experiment: crystal structure

Substance	stoichiometry N [1]	stoichiometry N [2]
STM3605t (STM3605 residues 5-107, SeMet-labeled and reductively methylated) (domain or fragment)	2	
STM3605f, full-length Se-labeled non-methylated variant (natural protein)		2
